# Measured values: paper PMC9242541, “Importance of Rare DPYD Genetic Polymorphisms for 5-Fluorouracil Therapy in the Japanese Population” (Frontiers in Pharmacology, 2022)
# Target: the molecule itself
# Assay: native gel or EMSA; blue native PAGE (Tris-glycine buffer, 5%-20% polyacrylamide gels), 9 μg of the soluble fraction of transfected 293FT cells per lane, immunoblot with polyclonal anti-human DPD antibody; monomer to dimer
protein,measurement,value
"wild-type dihydropyrimidine dehydrogenase (DPD) (enzyme, human, UniProt Q12882 4-1025, looked up, dihydropyrimidine dehydrogenase (DPD), human, wild-type DPYD cDNA; the open-reading frame encodes 1,025 amino acid residues; no tag is stated; also called wild-type DPD; source: 293FT cells, transfected (pcDNA3.4), soluble fraction) VLSKDSADIESILALNPRTQTHATLCSTSAKKLDKKHWKRNPDKNCFNCEKLENNFDDIKHTTLGERGALREAMRCLKCADAPCQKSCPTNLDIKSFITSIANKNYYGAAKMIFSDNPLGLTCGMVCPTSDLCVGGCNLYATEEGPINIGGLQQFATEVFKAMSIPQIRNPSLPPPEKMSEAYSAKIALFGAGPASISCASFLARLGYSDITIFEKQEYVGGLSTSEIPQFRLPYDVVNFEIELMKDLGVKIICGKSLSVNEMTLSTLKEKGYKAAFIGIGLPEPNKDAIFQGLTQDQGFYTSKDFLPLVAKGSKAGMCACHSPLPSIRGVVIVLGAGDTAFDCATSALRCGARRVFIVFRKGFVNIRAVPEEMELAKEEKCEFLPFLSPRKVIVKGGRIVAMQFVRTEQDETGKWNEDEDQMVHLKADVVISAFGSVLSDPKVKEALSPIKFNRWGLPEVDPETMQTSEAWVFAGGDVVGLANTTVESVNDGKQASWYIHKYVQSQYGASVSAKPELPLFYTPIDLVDISVEMAGLKFINPFGLASATPATSTSMIRRAFEAGWGFALTKTFSLDKDIVTNVSPRIIRGTTSGPMYGPGQSSFLNIELISEKTAAYWCQSVTELKADFPDNIVIASIMCSYNKNDWTELAKKSEDSGADALELNLSCPHGMGERGMGLACGQDPELVRNICRWVRQAVQIPFFAKLTPNVTDIVSIARAAKEGGANGVTATNTVSGLMGLKSDGTPWPAVGIAKRTTYGGVSGTAIRPIALRAVTSIARALPGFPILATGGIDSAESGLQFLHSGASVLQVCSAIQNQDFTVIEDYCTGLKALLYLKSIEELQDWDGQSPATVSHQKGKPVPRIAELMDKKLPSFGPYLEQRKKIIAENKIRLKEQNVAFSPLKRNCFIPKRPIPTIKDVIGKALQYLGTFGELSNVEQVVAMIDEEMCINCGKCYMTCNDSGYQAIQFDPETHLPTITDTCTGCTLCLSVCPIVDCIKMVSRTTPYEPKRGVPLSVNPVC",stoichiometry N,2
"DPD variant D291N (enzyme, human, UniProt Q12882 4-1025, looked up, dihydropyrimidine dehydrogenase (DPD), human, DPYD cDNA with a variant found in Japanese individuals; made by site-directed mutagenesis of the wild-type construct; also called 871G > A; source: 293FT cells, transfected (pcDNA3.4), soluble fraction) VLSKDSADIESILALNPRTQTHATLCSTSAKKLDKKHWKRNPDKNCFNCEKLENNFDDIKHTTLGERGALREAMRCLKCADAPCQKSCPTNLDIKSFITSIANKNYYGAAKMIFSDNPLGLTCGMVCPTSDLCVGGCNLYATEEGPINIGGLQQFATEVFKAMSIPQIRNPSLPPPEKMSEAYSAKIALFGAGPASISCASFLARLGYSDITIFEKQEYVGGLSTSEIPQFRLPYDVVNFEIELMKDLGVKIICGKSLSVNEMTLSTLKEKGYKAAFIGIGLPEPNKNAIFQGLTQDQGFYTSKDFLPLVAKGSKAGMCACHSPLPSIRGVVIVLGAGDTAFDCATSALRCGARRVFIVFRKGFVNIRAVPEEMELAKEEKCEFLPFLSPRKVIVKGGRIVAMQFVRTEQDETGKWNEDEDQMVHLKADVVISAFGSVLSDPKVKEALSPIKFNRWGLPEVDPETMQTSEAWVFAGGDVVGLANTTVESVNDGKQASWYIHKYVQSQYGASVSAKPELPLFYTPIDLVDISVEMAGLKFINPFGLASATPATSTSMIRRAFEAGWGFALTKTFSLDKDIVTNVSPRIIRGTTSGPMYGPGQSSFLNIELISEKTAAYWCQSVTELKADFPDNIVIASIMCSYNKNDWTELAKKSEDSGADALELNLSCPHGMGERGMGLACGQDPELVRNICRWVRQAVQIPFFAKLTPNVTDIVSIARAAKEGGANGVTATNTVSGLMGLKSDGTPWPAVGIAKRTTYGGVSGTAIRPIALRAVTSIARALPGFPILATGGIDSAESGLQFLHSGASVLQVCSAIQNQDFTVIEDYCTGLKALLYLKSIEELQDWDGQSPATVSHQKGKPVPRIAELMDKKLPSFGPYLEQRKKIIAENKIRLKEQNVAFSPLKRNCFIPKRPIPTIKDVIGKALQYLGTFGELSNVEQVVAMIDEEMCINCGKCYMTCNDSGYQAIQFDPETHLPTITDTCTGCTLCLSVCPIVDCIKMVSRTTPYEPKRGVPLSVNPVC",stoichiometry N,2
"DPD variant Y304H (enzyme, human, UniProt Q12882 4-1025, looked up, dihydropyrimidine dehydrogenase (DPD), human, DPYD cDNA with a variant found in Japanese individuals; made by site-directed mutagenesis of the wild-type construct; also called 910T > C; source: 293FT cells, transfected (pcDNA3.4), soluble fraction) VLSKDSADIESILALNPRTQTHATLCSTSAKKLDKKHWKRNPDKNCFNCEKLENNFDDIKHTTLGERGALREAMRCLKCADAPCQKSCPTNLDIKSFITSIANKNYYGAAKMIFSDNPLGLTCGMVCPTSDLCVGGCNLYATEEGPINIGGLQQFATEVFKAMSIPQIRNPSLPPPEKMSEAYSAKIALFGAGPASISCASFLARLGYSDITIFEKQEYVGGLSTSEIPQFRLPYDVVNFEIELMKDLGVKIICGKSLSVNEMTLSTLKEKGYKAAFIGIGLPEPNKDAIFQGLTQDQGFHTSKDFLPLVAKGSKAGMCACHSPLPSIRGVVIVLGAGDTAFDCATSALRCGARRVFIVFRKGFVNIRAVPEEMELAKEEKCEFLPFLSPRKVIVKGGRIVAMQFVRTEQDETGKWNEDEDQMVHLKADVVISAFGSVLSDPKVKEALSPIKFNRWGLPEVDPETMQTSEAWVFAGGDVVGLANTTVESVNDGKQASWYIHKYVQSQYGASVSAKPELPLFYTPIDLVDISVEMAGLKFINPFGLASATPATSTSMIRRAFEAGWGFALTKTFSLDKDIVTNVSPRIIRGTTSGPMYGPGQSSFLNIELISEKTAAYWCQSVTELKADFPDNIVIASIMCSYNKNDWTELAKKSEDSGADALELNLSCPHGMGERGMGLACGQDPELVRNICRWVRQAVQIPFFAKLTPNVTDIVSIARAAKEGGANGVTATNTVSGLMGLKSDGTPWPAVGIAKRTTYGGVSGTAIRPIALRAVTSIARALPGFPILATGGIDSAESGLQFLHSGASVLQVCSAIQNQDFTVIEDYCTGLKALLYLKSIEELQDWDGQSPATVSHQKGKPVPRIAELMDKKLPSFGPYLEQRKKIIAENKIRLKEQNVAFSPLKRNCFIPKRPIPTIKDVIGKALQYLGTFGELSNVEQVVAMIDEEMCINCGKCYMTCNDSGYQAIQFDPETHLPTITDTCTGCTLCLSVCPIVDCIKMVSRTTPYEPKRGVPLSVNPVC",stoichiometry N,2
"DPD variant I245F (enzyme, human, UniProt Q12882 4-1025, looked up, dihydropyrimidine dehydrogenase (DPD), human, DPYD cDNA with a variant found in Japanese individuals; made by site-directed mutagenesis of the wild-type construct; also called 733A > T; source: 293FT cells, transfected (pcDNA3.4), soluble fraction) VLSKDSADIESILALNPRTQTHATLCSTSAKKLDKKHWKRNPDKNCFNCEKLENNFDDIKHTTLGERGALREAMRCLKCADAPCQKSCPTNLDIKSFITSIANKNYYGAAKMIFSDNPLGLTCGMVCPTSDLCVGGCNLYATEEGPINIGGLQQFATEVFKAMSIPQIRNPSLPPPEKMSEAYSAKIALFGAGPASISCASFLARLGYSDITIFEKQEYVGGLSTSEIPQFRLPYDVVNFEFELMKDLGVKIICGKSLSVNEMTLSTLKEKGYKAAFIGIGLPEPNKDAIFQGLTQDQGFYTSKDFLPLVAKGSKAGMCACHSPLPSIRGVVIVLGAGDTAFDCATSALRCGARRVFIVFRKGFVNIRAVPEEMELAKEEKCEFLPFLSPRKVIVKGGRIVAMQFVRTEQDETGKWNEDEDQMVHLKADVVISAFGSVLSDPKVKEALSPIKFNRWGLPEVDPETMQTSEAWVFAGGDVVGLANTTVESVNDGKQASWYIHKYVQSQYGASVSAKPELPLFYTPIDLVDISVEMAGLKFINPFGLASATPATSTSMIRRAFEAGWGFALTKTFSLDKDIVTNVSPRIIRGTTSGPMYGPGQSSFLNIELISEKTAAYWCQSVTELKADFPDNIVIASIMCSYNKNDWTELAKKSEDSGADALELNLSCPHGMGERGMGLACGQDPELVRNICRWVRQAVQIPFFAKLTPNVTDIVSIARAAKEGGANGVTATNTVSGLMGLKSDGTPWPAVGIAKRTTYGGVSGTAIRPIALRAVTSIARALPGFPILATGGIDSAESGLQFLHSGASVLQVCSAIQNQDFTVIEDYCTGLKALLYLKSIEELQDWDGQSPATVSHQKGKPVPRIAELMDKKLPSFGPYLEQRKKIIAENKIRLKEQNVAFSPLKRNCFIPKRPIPTIKDVIGKALQYLGTFGELSNVEQVVAMIDEEMCINCGKCYMTCNDSGYQAIQFDPETHLPTITDTCTGCTLCLSVCPIVDCIKMVSRTTPYEPKRGVPLSVNPVC",stoichiometry N,2
"DPD variant T298M (enzyme, human, UniProt Q12882 4-1025, looked up, dihydropyrimidine dehydrogenase (DPD), human, DPYD cDNA with a variant found in Japanese individuals; made by site-directed mutagenesis of the wild-type construct; also called 893C > T; source: 293FT cells, transfected (pcDNA3.4), soluble fraction) VLSKDSADIESILALNPRTQTHATLCSTSAKKLDKKHWKRNPDKNCFNCEKLENNFDDIKHTTLGERGALREAMRCLKCADAPCQKSCPTNLDIKSFITSIANKNYYGAAKMIFSDNPLGLTCGMVCPTSDLCVGGCNLYATEEGPINIGGLQQFATEVFKAMSIPQIRNPSLPPPEKMSEAYSAKIALFGAGPASISCASFLARLGYSDITIFEKQEYVGGLSTSEIPQFRLPYDVVNFEIELMKDLGVKIICGKSLSVNEMTLSTLKEKGYKAAFIGIGLPEPNKDAIFQGLMQDQGFYTSKDFLPLVAKGSKAGMCACHSPLPSIRGVVIVLGAGDTAFDCATSALRCGARRVFIVFRKGFVNIRAVPEEMELAKEEKCEFLPFLSPRKVIVKGGRIVAMQFVRTEQDETGKWNEDEDQMVHLKADVVISAFGSVLSDPKVKEALSPIKFNRWGLPEVDPETMQTSEAWVFAGGDVVGLANTTVESVNDGKQASWYIHKYVQSQYGASVSAKPELPLFYTPIDLVDISVEMAGLKFINPFGLASATPATSTSMIRRAFEAGWGFALTKTFSLDKDIVTNVSPRIIRGTTSGPMYGPGQSSFLNIELISEKTAAYWCQSVTELKADFPDNIVIASIMCSYNKNDWTELAKKSEDSGADALELNLSCPHGMGERGMGLACGQDPELVRNICRWVRQAVQIPFFAKLTPNVTDIVSIARAAKEGGANGVTATNTVSGLMGLKSDGTPWPAVGIAKRTTYGGVSGTAIRPIALRAVTSIARALPGFPILATGGIDSAESGLQFLHSGASVLQVCSAIQNQDFTVIEDYCTGLKALLYLKSIEELQDWDGQSPATVSHQKGKPVPRIAELMDKKLPSFGPYLEQRKKIIAENKIRLKEQNVAFSPLKRNCFIPKRPIPTIKDVIGKALQYLGTFGELSNVEQVVAMIDEEMCINCGKCYMTCNDSGYQAIQFDPETHLPTITDTCTGCTLCLSVCPIVDCIKMVSRTTPYEPKRGVPLSVNPVC",stoichiometry N,2
"DPD variant V313L (enzyme, human, UniProt Q12882 4-1025, looked up, dihydropyrimidine dehydrogenase (DPD), human, DPYD cDNA with a variant found in Japanese individuals; made by site-directed mutagenesis of the wild-type construct; also called 937G > T; source: 293FT cells, transfected (pcDNA3.4), soluble fraction) VLSKDSADIESILALNPRTQTHATLCSTSAKKLDKKHWKRNPDKNCFNCEKLENNFDDIKHTTLGERGALREAMRCLKCADAPCQKSCPTNLDIKSFITSIANKNYYGAAKMIFSDNPLGLTCGMVCPTSDLCVGGCNLYATEEGPINIGGLQQFATEVFKAMSIPQIRNPSLPPPEKMSEAYSAKIALFGAGPASISCASFLARLGYSDITIFEKQEYVGGLSTSEIPQFRLPYDVVNFEIELMKDLGVKIICGKSLSVNEMTLSTLKEKGYKAAFIGIGLPEPNKDAIFQGLTQDQGFYTSKDFLPLLAKGSKAGMCACHSPLPSIRGVVIVLGAGDTAFDCATSALRCGARRVFIVFRKGFVNIRAVPEEMELAKEEKCEFLPFLSPRKVIVKGGRIVAMQFVRTEQDETGKWNEDEDQMVHLKADVVISAFGSVLSDPKVKEALSPIKFNRWGLPEVDPETMQTSEAWVFAGGDVVGLANTTVESVNDGKQASWYIHKYVQSQYGASVSAKPELPLFYTPIDLVDISVEMAGLKFINPFGLASATPATSTSMIRRAFEAGWGFALTKTFSLDKDIVTNVSPRIIRGTTSGPMYGPGQSSFLNIELISEKTAAYWCQSVTELKADFPDNIVIASIMCSYNKNDWTELAKKSEDSGADALELNLSCPHGMGERGMGLACGQDPELVRNICRWVRQAVQIPFFAKLTPNVTDIVSIARAAKEGGANGVTATNTVSGLMGLKSDGTPWPAVGIAKRTTYGGVSGTAIRPIALRAVTSIARALPGFPILATGGIDSAESGLQFLHSGASVLQVCSAIQNQDFTVIEDYCTGLKALLYLKSIEELQDWDGQSPATVSHQKGKPVPRIAELMDKKLPSFGPYLEQRKKIIAENKIRLKEQNVAFSPLKRNCFIPKRPIPTIKDVIGKALQYLGTFGELSNVEQVVAMIDEEMCINCGKCYMTCNDSGYQAIQFDPETHLPTITDTCTGCTLCLSVCPIVDCIKMVSRTTPYEPKRGVPLSVNPVC",stoichiometry N,2
